Entries after “also recorded” stand apart in the source; their conditions may differ.
System: mouse bone marrow mesenchymal stem cell line (MSC-1 cells), PDGFRα-positive
Assay: Migration assay (Boyden / 48-well chemotaxis chamber) on bone marrow mesenchymal stem cell line MSC-1
Format: cell-based
Procedure: Cells of a mouse bone marrow mesenchymal stem cell line (MSC-1 cells, established by Tamai et al. of Osaka University (PDGFRα-positive cells in bone marrow are mobilized by high mobility group box 1 (HMGB1) to regenerate injured epithelia. (Tamai et al., Proc Natl Acad Sci USA. Apr. 4, 2011))) were detached from dishes using trypsin, and collected by centrifugation at 1200 rpm and 4° C. for 10 minutes. The resulting pellet was loosened and suspended at a cell concentration of 2.0×10^6 to 3.0×10^6 cells/ml by adding Dulbecco's Modified Eagle Medium (D-MEM) containing 10% fetal bovine serum (FBS). The recombinant protein and peptides produced in HEK293 were diluted with D-MEM containing 10% FBS. The negative control used was phosphate buffered saline (PBS). An acrylic Boyden chamber was used; cells of the mouse bone marrow mesenchymal stem cell line prepared at a cell concentration of 3×10^6 cells/ml were placed in its upper layer, while a diluted protein or peptide is added to the bottom layer. More specifically, a 28 μl aliquot of a protein or peptide solution was added to each well of the bottom plate of a 48-well chemotaxis chamber (NEURO PROBE 48WELL CHEMOTAXIS CHAMBER), and a polycarbonate membrane with 8 μm pores (Neuro Probe, Inc, Cat: 866-417-0014) was placed on the bottom plate. Then, an upper plate was placed on the membrane and screwed tightly. 50 μl of cells of the mouse bone marrow mesenchymal stem cell line after concentration adjustment were added to the upper plate wells. The chamber was placed in an incubator under 5% CO2 at 37° C. After four hours, the membrane was removed from the chamber and stained with Diff-Quik (Sysmex, Cat: 16920) to detect cells that migrated through membrane pores to the lower compartment.
The peptides listed below were custom synthesized using the solid phase method by Medical & Biological Laboratories (MBL). The peptides were synthesized based on the mouse HMGB1 sequence (SEQ ID NO: 3). Synthetic peptides described in subsequent Examples were also prepared based on the mouse HMGB1 sequence. • A synthetic peptide consisting of the amino acid sequence from positions 1 to 10 of HMGB1 (1-10); • a synthetic peptide consisting of the amino acid sequence from positions 1 to 34 of HMGB1 (1-34); • a synthetic peptide consisting of the amino acid sequence from positions 37 to 62 of HMGB1 (37-62); • a synthetic peptide consisting of the amino acid sequence from positions 27 to 62 of HMGB1 (27-62); • a synthetic peptide consisting of the amino acid sequence from positions 56 to 72 of HMGB1 (56-72); • a synthetic peptide consisting of the amino acid sequence from positions 11 to 20 of HMGB1 (11-20); • a synthetic peptide consisting of the amino acid sequence from positions 11 to 25 of HMGB1 (11-25); • a synthetic peptide consisting of the amino acid sequence from positions 11 to 30 of HMGB1 (11-30); • a synthetic peptide consisting of the amino acid sequence from positions 11 to 34 of HMGB1 (11-34); • a synthetic peptide consisting of the amino acid sequence from positions 11 to 44 of HMGB1 (11-44); • a synthetic peptide consisting of the amino acid sequence from positions 17 to 44 of HMGB1 (17-44); • a synthetic peptide consisting of the amino acid sequence from positions 1 to 25 of HMGB1 (1-25); and the whole mouse HMGB1 produced in HEK293 (1-215(HEK)) as a positive control were adjusted to 100 μg/ml and placed in the lower layer of a chemotaxis chamber to assess the migration-promoting activity on bone marrow mesenchymal stem cell line (MSC-1). Results
As positive controls, centrifuged supernatant of the skin of a one-day-old mouse (one individual) incubated in PBS at 4° C. for 12 hours, and the whole mouse HMGB1 (HMGB1(HEK_1-215)) produced in HEK293 were used. […]

[1] = human HMGB1 fragments produced in E. coli, 2 μM, FIG. 18B
[2] = human HMGB1 fragments 2-215, 2-205, 2-195, 2-185 produced in E. coli, 2 μM, FIG. 21A
[3] = peptides produced using HEK293, 5, 15 and 25 μg/ml, FIG. 3
[4] = human HMGB1 fragments 89-215, 89-205, 89-195, 89-185 and their Q column fractions, E. coli, 2 μM, FIGS. 19B and 19D
[5] = protein and peptides produced using HEK293 (mouse HMGB1), 50 μg/ml, 4 h, FIG. 2A

B1: 2-70: human HMGB1 fragment, positions 2 to 70, produced in E. coli (protein, UniProt P09429 2-70, looked up, fragment)
chain: GKGDPKKPRGKMSSYAFFVQTCREEHKKKHPDASVNFSEFSKKCSERWKTMSAKEKGKFEDMAKADKAR
With B1 as the molecule, how does the migration-promoting activity [1] read?
Its migration-promoting activity is “showed migration-promoting activity on bone marrow mesenchymal stem cells”.

B2: 93-215: human HMGB1 fragment, positions 93 to 215, produced in E. coli (protein, UniProt P09429 93-215, looked up, fragment)
chain: NAPKRPPSAFFLFCSEYRPKIKGEHPGLSIGDVAKKLGEMWNNTAADDKQPYEKKAAKLKEKYEKDIAAYRAKGKPDAAKKGVVKAEKSKKKKEEEEDEEDEEDEEEEEDEEDEDEEEDDDDE
For B2, which migration-promoting activity [1] is on record?
Its migration-promoting activity is “showed migration-promoting activity on bone marrow mesenchymal stem cells”.

B3: 2-195: human HMGB1 fragment, amino acids of positions 2 to 195, produced in E. coli (protein, UniProt P09429 2-195, looked up, fragment)
chain: GKGDPKKPRGKMSSYAFFVQTCREEHKKKHPDASVNFSEFSKKCSERWKTMSAKEKGKFEDMAKADKARYEREMKTYIPPKGETKKKFKDPNAPKRPPSAFFLFCSEYRPKIKGEHPGLSIGDVAKKLGEMWNNTAADDKQPYEKKAAKLKEKYEKDIAAYRAKGKPDAAKKGVVKAEKSKKKKEEEEDEEDEE
How did the migration-promoting activity [2] turn out when B3 was run?
Its migration-promoting activity is “stronger migration-promoting activity than fragments 2-215 and 2-205”.

B4: 63-215: peptide of positions 63 to 215 of HMGB1, produced using HEK293 (protein, UniProt P63158 63-215, looked up, fragment)
chain: MAKADKARYEREMKTYIPPKGETKKKFKDPNAPKRPPSAFFLFCSEYRPKIKGEHPGLSIGDVAKKLGEMWNNTAADDKQPYEKKAAKLKEKYEKDIAAYRAKGKPDAAKKGVVKAEKSKKKKEEEDDEEDEEDEEEEEEEEDEDEEEDDDDE
Which migration-promoting activity [3] does the source give for B4 here?
The migration-promoting activity was “exhibited migration-promoting activity in a concentration-dependent manner”.

B5: 2-185: human HMGB1 fragment, amino acids of positions 2 to 185, produced in E. coli (protein, UniProt P09429 2-185, looked up, fragment)
chain: GKGDPKKPRGKMSSYAFFVQTCREEHKKKHPDASVNFSEFSKKCSERWKTMSAKEKGKFEDMAKADKARYEREMKTYIPPKGETKKKFKDPNAPKRPPSAFFLFCSEYRPKIKGEHPGLSIGDVAKKLGEMWNNTAADDKQPYEKKAAKLKEKYEKDIAAYRAKGKPDAAKKGVVKAEKSKKKK
With B5 as the molecule, how does the migration-promoting activity [2] read?
The migration-promoting activity was “stronger migration-promoting activity than fragments 2-215 and 2-205”.

B6: 2-170: human HMGB1 fragment, positions 2 to 170, produced in E. coli (protein, UniProt P09429 2-170, looked up, fragment)
chain: GKGDPKKPRGKMSSYAFFVQTCREEHKKKHPDASVNFSEFSKKCSERWKTMSAKEKGKFEDMAKADKARYEREMKTYIPPKGETKKKFKDPNAPKRPPSAFFLFCSEYRPKIKGEHPGLSIGDVAKKLGEMWNNTAADDKQPYEKKAAKLKEKYEKDIAAYRAKGKPDA
Which migration-promoting activity [1] does the source give for B6 here?
The migration-promoting activity was “showed migration-promoting activity on bone marrow mesenchymal stem cells”.

B7: 89-205: human HMGB1 fragment, positions 89 to 205, produced in E. coli (protein, UniProt P09429 89-205, looked up, fragment)
chain: FKDPNAPKRPPSAFFLFCSEYRPKIKGEHPGLSIGDVAKKLGEMWNNTAADDKQPYEKKAAKLKEKYEKDIAAYRAKGKPDAAKKGVVKAEKSKKKKEEEEDEEDEEDEEEEEDEED
B7 was tested. Which migration-promoting activity [4] did it give?
Its migration-promoting activity is “weak migration-promoting activity”.

B8: 1-62: peptide comprising the amino acid sequence of positions 1 to 62, produced using HEK293 (protein, UniProt P63158 1-62, looked up, fragment)
chain: MGKGDPKKPRGKMSSYAFFVQTCREEHKKKHPDASVNFSEFSKKCSERWKTMSAKEKGKFED
Which “activity of promoting the migration of MSC-1” value (peptides produced using HEK293, concentration not stated) does the source give for B8 here?
Its value is “showed the activity of promoting the migration of bone marrow mesenchymal stem line MSC-1”.

B9: 85-169: peptide of positions 85 to 169 of mouse HMGB1, produced using HEK293 (protein, UniProt P63158 85-169, looked up, fragment)
chain: TKKKFKDPNAPKRPPSAFFLFCSEYRPKIKGEHPGLSIGDVAKKLGEMWNNTAADDKQPYEKKAAKLKEKYEKDIAAYRAKGKPD
For B9, which migration-promoting activity [5] is on record?
Its migration-promoting activity is “did not show detectable migration-promoting activity”.

B10: 2-215: human HMGB1 positions 2 to 215 produced in E. coli, nearly the full length, positive control (protein, UniProt P09429 2-215, looked up, fragment)
chain: GKGDPKKPRGKMSSYAFFVQTCREEHKKKHPDASVNFSEFSKKCSERWKTMSAKEKGKFEDMAKADKARYEREMKTYIPPKGETKKKFKDPNAPKRPPSAFFLFCSEYRPKIKGEHPGLSIGDVAKKLGEMWNNTAADDKQPYEKKAAKLKEKYEKDIAAYRAKGKPDAAKKGVVKAEKSKKKKEEEEDEEDEEDEEEEEDEEDEDEEEDDDDE
With B10 as the molecule, how does the migration-promoting activity [1] read?
Its migration-promoting activity is “showed migration-promoting activity on bone marrow mesenchymal stem cells”.

B11: 1-84: peptide of positions 1 to 84 of mouse HMGB1, produced using HEK293 (protein, UniProt P63158 1-84, looked up, fragment)
chain: MGKGDPKKPRGKMSSYAFFVQTCREEHKKKHPDASVNFSEFSKKCSERWKTMSAKEKGKFEDMAKADKARYEREMKTYIPPKGE
Which migration-promoting activity [5] does the source give for B11 here?
Its migration-promoting activity is “showed migration-promoting activity”.

B12: 89-215: human HMGB1 fragment, positions 89 to 215, produced in E. coli (protein, UniProt P09429 89-215, looked up, fragment)
chain: FKDPNAPKRPPSAFFLFCSEYRPKIKGEHPGLSIGDVAKKLGEMWNNTAADDKQPYEKKAAKLKEKYEKDIAAYRAKGKPDAAKKGVVKAEKSKKKKEEEEDEEDEEDEEEEEDEEDEDEEEDDDDE
With B12 as the molecule, how does the migration-promoting activity [4] read?
The migration-promoting activity was “weak migration-promoting activity”.

B13: 2-81: human HMGB1 fragment, positions 2 to 81, produced in E. coli (protein, UniProt P09429 2-81, looked up, fragment)
chain: GKGDPKKPRGKMSSYAFFVQTCREEHKKKHPDASVNFSEFSKKCSERWKTMSAKEKGKFEDMAKADKARYEREMKTYIPP
With B13 as the molecule, how does the migration-promoting activity [1] read?
Its migration-promoting activity is “showed migration-promoting activity on bone marrow mesenchymal stem cells”.

B14: 45-215: peptide of positions 45 to 215 of HMGB1, produced using HEK293 (protein, UniProt P09429 45-215, looked up, fragment)
chain: CSERWKTMSAKEKGKFEDMAKADKARYEREMKTYIPPKGETKKKFKDPNAPKRPPSAFFLFCSEYRPKIKGEHPGLSIGDVAKKLGEMWNNTAADDKQPYEKKAAKLKEKYEKDIAAYRAKGKPDAAKKGVVKAEKSKKKKEEEEDEEDEEDEEEEEDEEDEDEEEDDDDE
How did the migration-promoting activity [3] turn out when B14 was run?
The migration-promoting activity was “exhibited migration-promoting activity in a concentration-dependent manner; also recorded: stronger as compared to 63-215”.

B15: 2-62: human HMGB1 fragment, positions 2 to 62, produced in E. coli (protein, UniProt P09429 2-62, looked up, fragment)
chain: GKGDPKKPRGKMSSYAFFVQTCREEHKKKHPDASVNFSEFSKKCSERWKTMSAKEKGKFED
B15 was tested. Which migration-promoting activity [1] did it give?
Its migration-promoting activity is “showed migration-promoting activity on bone marrow mesenchymal stem cells”.

Source: patent US10550165B2, “Peptide for inducing regeneration of tissue and use thereof” (STEMRIM INC., priority 2011, dated 2020)
